The target in data set [1] is T1, RUNX1 (recombinant) (UniProt Q01196 1-453). The experiment in a line: EMSA, supershift. Background: In EMSA bound probe runs differently from free probe, usually more slowly.
Data set [2] has as its target T1, RUNX1 (recombinant). The experiment in a line: EMSA, supershift. This is another data set of the same source.

The text below walks through data of paper PMC3066073.

Read-outs that look alike come from different tables or passages of the source.

T1 sequence (Q01196 whole entry): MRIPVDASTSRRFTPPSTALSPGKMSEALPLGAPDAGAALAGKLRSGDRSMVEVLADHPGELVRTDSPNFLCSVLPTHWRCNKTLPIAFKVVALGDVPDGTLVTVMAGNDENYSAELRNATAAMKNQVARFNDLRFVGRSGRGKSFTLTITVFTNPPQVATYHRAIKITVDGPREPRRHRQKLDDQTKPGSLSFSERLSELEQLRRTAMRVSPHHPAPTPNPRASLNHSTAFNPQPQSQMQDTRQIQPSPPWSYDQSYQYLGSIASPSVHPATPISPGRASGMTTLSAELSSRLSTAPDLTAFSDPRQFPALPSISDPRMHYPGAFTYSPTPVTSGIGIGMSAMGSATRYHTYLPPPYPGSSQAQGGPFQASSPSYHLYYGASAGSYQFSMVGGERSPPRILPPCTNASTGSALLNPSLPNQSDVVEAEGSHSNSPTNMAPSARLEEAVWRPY

B1: PKC-theta Wt probe I (dsDNA)
DNA 1: CAAATGCCTGGGGTAGGTCA
DNA 2: TGACCTACCCCAGGCATTTG
Take B1: the binding result with RUNX1 (recombinant) [1] is recorded as “binds”.

B2: PKC-theta Wt probe III (dsDNA)
DNA 1: ATGAGCCACCGCACCTGGCC
DNA 2: GGCCAGGTGCGGTGGCTCAT
In the case of B2, the binding result in the data set with RUNX1 (recombinant) [2] is “binds”.
